Results from paper PMC3078076.

What was measured:
Human HP1β CSD (human) [1] = experiment: SEC
Human HP1β CSD (human) [2] = experiment: crystal structure

stoichiometry N (Human HP1β CSD (human) [1])	stoichiometry N (Human HP1β CSD (human) [2])	stoichiometry N (Sgo1P1 per two HP1β CSD) (Human HP1β CSD (human) [1])	stoichiometry N (Sgo1P1 peptide per CSD dimer) (Human HP1β CSD (human) [2])	Substance
2	2			Human HP1β CSD (domain or fragment)
		1	1	Sgo1P1 (from UniProt Q5FBB7 425-443) (peptide)
